Laboratory results reported in the DeepSol protein solubility set.

Experiment: soluble on expression in E. coli; label from the status in PepcDB or PDB records

Sequence	soluble on expression in E. coli
MLFTIEQLELIKKLQHTGMSSDQLLKAFGELEVPEQLQNNNTIAAALYSPLLVQHLTTPKSETPVKLTVQTVPTPVKSEPQSSNCSSPFEHPICSNAPRPIRSQRTPMKEITTLDDPNELEEFMKQGEEACILDMKTFITQYSLRQTTVAMMTGVSQPYISKLLNGNHRELSLRCRKNIYCWYLNCRRHPNKLAAFLADPTTRLETNGDGELIPQRRERYVFRPILIRMLESFFTQTPFPDLPRRVEIANACNHVLKMDKKGVGLMPKEVVSPQVVSNWFANKRKELRRRSAEASAASTSSASSSASSTANHDSVSVSSMSPRDEETSSRNTTPETAISPSPAVSTFEVSRPSAIISATSSTTSPISIPATIIPSVSPSALELFAMAQQLGVQLPVPFPTLPTHFFPFQMAPFYGNPASILKSE	not soluble
MLGAMFRAGTPMPPNLNSQGGGHYFIDRDGKAFRHILNFLRLGRLDLPRGYGETALLRAEADFYQIRPLLDALRELEASQGTPAPTAALLHADVDVSPRLVHFSARRGPHHYELSSVQVDTFRANLFCTDSECLGALRARFGVASGDRAEGSPHFHLEWAPRPVELPEVEYGRLGLQPLWTGGPGERREVVGTPSFLEEVLRVALEHGFRLDSVFPDPEDLLNSRSLRFVRH	soluble
MLGERIMSKLSKGIKDQASGLRNLSRNKPVKVIAVSAGKGGVGKSNISVNLAIALSQLNYSVMLLDADLGLANVDIMLGLHTKYNLSHVLQGICHLSDIILHGPAGVRVIPAASGTEFMTQLSPAEHAGIIDSFNELTDDLDYMIIDTAAGISETVLSFTRSSQELIVVVCDEPTSLTDAYALIKVMSKRYEWTHFHILANMVRNVKDGRDLFNKLFRVSGQFLDVQLDYLGAIPFDENIHKSVKKQNPILIAYPDSPAAHALRELAESVSNWSFKPSLGGNTSFFLERLVAGQF	not soluble
MLGLLRRLFDNNEREIARYYKQVVEPVNRLEAEVEKLPDLAAAYRELKEKHEKGASLDELLPMAFALTRESAKRYLGMRHFDVQLIGGAVLHEGKIAEMKTGEGKTLVATLAVALNALTGKGVHVVTVNDYLARRDAEWMGPVYRGLGLSVGVIQHASTPAERRKAYLADVTYVTNSELGFDYLRDNMAISPDQLVLRHDHPLHYAIIDEVDSILIDEARTPLIISGPAEKATDLYYKMAEIAKKLERGLPAEPGVRKEPTGDYTVEEKNRSVHLTLQGIAKAEKLLGIEGLFSPENMELAHMLIQAIRAKELYHRDRDYIVQDGQVIIVDEFTGRLMPGRRYGEGLHQAIEAKEGVRIERENQTLATITYQNFFRLYEKRAGMTGTAKTEEKEFQEIYGMDVVVVPTNRPVIRKDFPDVVYRTEKGKFYAVVEEIAEKYERGQPVLVGTISIEKSERLSQMLKEPRLYLPRLEMRLELFKKASQKQQGPEWERLRKLLERPAQLKDEDLAPFEGLIPPKGNLRTAWEGLKRAVHTLAVLRQGIPHQVLNAKHHAREAEIVAQAGRSKTVTIATNMAGRGTDIKLGGNPEYLAAALLEKEGFDRYEWKVELFIKKMVAGKEEEARALAQELGIREELLERIREIREECKQDEERVRALGGLFIIGTERHESRRIDNQLRGRAGRQGDPGGSRFYVSFDDDLMRLFASDRVIAMLDRMGFDDSEPIEHPMVTRSIERAQKRVEDRNFAIRKQLLQFDDVLSRQREVIYAQRRLILLGKDEEVKEAAIGMVEETVASLAENFLNPEVHPEDWDLEGLKATLLDTAPQLQDFPFAELRALKAEEAVERLVEAALKAYEAREAELSPPLMRAVERFVILNVVDNAWKEHLHNLDVLRQGIFLRGYGQKDPFQEYKIEATRLFNEMVAFIKSEVAKFLFRLKVEAEPVRPVREAPYVPVPEAKPEPSEVFGVERKRATPPPQPGLSRAERRRLMRQEKKRKK	soluble
MLHVAGRIEDYALIGDMQIAALVCQDGTVDWLCLPRFDSHAVFAGLLGTEEHGFWRLGPAHASDAEPPRASRRTYRGDSLILESEWDTPRGTVRVTDFMPPRDGAPQLIRIVEGVTGRVPMRSALRMRFSYGLEHHHHHH	not soluble
MLIEMWSPVFKKHGEIREPICFHHGLNVIMGMDLADNSIGKSSSLLAIDFIFGGNSYLKSIAVKKLGDHPIYFCFQFEKKFYFSRDTANPDIILVCDKSYSPTGETMDLGIFLNKLKKRYHLDSPELSFRLAMSGFFRIAGKSNQNTDFPLQVYSSQKSSESITTLIQLFNLYDNIARYKERLKDKSDQLTTFRNARRYAFISNLVGGKKQFEANVSEIKRLEYDLAHLQDTHQDKIDSDDI	not soluble
MLIGIDVGGTTTDAVLIRNGEVYSTAKVPTEPGDLLKSLLGALDEVSRGVPPEQFERVVFSTTVITNLIAEGKTERVALLLIPGPGVNPASYVFPDSFCIKGAMDYRGREIQPIDEEEVRGTVSRIRDQGFLRVAVVSKFGQRNPSHELRIEEIIREMH	not soluble
MLIHMKSRKMNLNKLEDGGSWFSRLKQFLQGEPQNQEELVSLLRDAQIRSLINSETLAMIEGAILFSKMRVRDIMLPKNQMVCINKDDDFKHIISIVTQTGHSRFPVTGENSDEVVGILHAKDLLKYQPENMESFDLLDICRQVTFVPESRRLDSLLSEFRSNRNHMAIVVDEYGEVSGFVTIEDIIEQIIGDIEDEFDIDEDAYIKTHEGHCYIIKAHTPIEEFNEQLNADFSDETYDTIGGIVLNKFGYLPQRGEVIIIDDFEFKVLNADSRRIKLLECLDKRSPEKLNSTVEG	not soluble
MLIISNAVHLPDHEIELNAIRAQGAGGQNVNKVSSAVHLRFDIQASSLPPFYKERLLALNDQRISGDGVVVIKAQQYRTQEQNREDALERLAELIRSVAKVQKARRPTKPTRGSQKRRLDGKAKRGAVKAGRGKVDFLEHHHHHH	not soluble
MLINEYRPGAGIGWHRDKPHFEDVAGISLLAPCSFRLRRKSGDRWERRTIVVEPRSAYLMTGPSRTEWEHSIPPLAEHRYSITLRTLRSQNPLEHHHHHH	not soluble
MLIVKTLVIIPTYNEAENIRPLVEDILDRYPEGLELLVIDDSSPDGTAGIVKAIMKNEPRVMLLSRPSKLGLGTAYLTGFRYALERGYERVIEMDADFSHDPASIASLIKAMDGADMVIGSRYMNNTVNVVNWPLSRLILSKSASIYSRWITGMPVSDPTSGFKCISAKALRFIALDRVRSQGYSFQIEIDFRVWKKNLVIHEVPIIFVDRSVGKSKMTRKNIVEAVWMVWWLKFLSIIGRLLEHHHHHH	not soluble
MLKFISLLGTSKYVPCNYFIKNREELKINDCCYVQKAILDILRQENVIPDKIIIFTTDEAHVSNWENNKWNNKGDKNDVQEIEDELQKRPGLKGELEKYKELTGADFKSVRIPNGIREEDLWEIFRTIFDEIDENDEIIFDVTHSFRYLPMLVFIVINYARVVKKCKLKSIYYGAFEVLGTPETVAKIPLEERNAPIFDLTSFVDLFDWTMGIDRYLNTGDVSVVHELTDIQIKRVNKEKLKFISKSEQGVDPKTLFMDSRQLRALSESMKNFSDVVFTCRGLELTRVACELKEKLREVTESASRQHIIPLMPVLEMMKERFDKFSKDNDYINIIETARWCADNKMYQQGLTILEEGLISFGCEKLGYENLSDKIDLDKRRKIGSYAFVVSNDFGRKSDNKKEKIPLLNIKSDVITDLLILIDEISSIRNDINHAGWRKDPSEAGAFGEQLKNFISRAEKIISPENFSTESDKCINNDSVDKEKKMLLILSHKLVPKQEEEARQRFGISKFLPMPNELHNKWSNIPPELEDLRDYLNDILEWIDLNAQEGDYALIQGDYGATFIAVNHCLAKGIIPVYSTTHRIVREEKNEDKVISVREFEHVILRKYEN	not soluble
MLKGILYIIGIYQRYLSPLKGPTCRFYPSCSRYAHESLTRYGLVKGLWLTTIRILKCHPFHPGGVDPVKLEHHHHHH	not soluble
MLKIGVLVSGRGSNLQAIIDAIESGKVNASIELVISDNPKAYAIERCKKHNVECKVIQRKEFPSKKEFEERMALELKKKGVELVVLAGFMRILSHNFLKYFPNKVINIHPSLIPAFQGLHAQKQAVEFGVKFSGCTVHIVDESVDAGPVIVQAVVPVLPEDDENTLADRILKWEHKILPQTVQWFAQDRIIIDGRKVIVKDATYGTLPVNPALEIF	soluble
MLKINYPIKGACQCGQVTYQLLAAPLMVAACHCRECQKLSTSAFSITAVVNATDVVFSGEMSDWSRLADNGNTNGAKFCPCCGNRIYHFNPNFPDKIKLKPSTLEDTRVIQPTMHIWTSEKQAWFKLPLDLPSHEKQPF	not soluble
MLKKRELQDCHALYELMVHPDVFPFVRQKASSYEEFLFMTKQLMEAEERGELISRTILDEWGNPIGTISLFDIQDGAGFLGTWLGKPYHGLGYNRRAKEAFFHELFYELSIETVFLRIRKVNVRSIKAAEKLPYVTPANETRRALLEQIGADVYNLYEITKDNYTLYTMRHPSFAHNEEQRKEA	not soluble
MLKRRQPKYCSFMDSIDNSTTIIRKNLNRFIRELTDDGKLDFESIPYQNLQKEVANQDEEGCENVIEVLLDTTSRSGCPDRKLILQLFNSFFLQFPIFRENLLNDPSEFLELMFETNPIRNPLPGSKKHGNELKVEAITVIKSWEKEKCVKNDARMKCLVVTLKKTKFVDYENGAKKIEAERKRKKILEERKMKMIENSVNVYSSKYHEIKNDAETLSMELTTTMQMLVPSFTTADPEVPSTSTSTPSAISDSKSFEIFIPDLTPEISVSSENDAIVEAFLGAKLSLIHRVQTLRKLVKRLQLLKQPGEKLAQEIIDYRDGIKNLVLKADELRIINPRPPKNKRKKSDDDFIDVDISIDDILMVQYAEKLEVDVKSKDESEKITESPEKHKIEMKNEKPVKIKTVPFGLDLKYWGEERKDVEVPKNNADCHRFWRSADEGTVAGKAQQSIYTQRQYTFIGKAPDNRKVCLAKMKSGKLCPRKDYYTCPLHGKIVDRDDEGRPINEEDRLEENYRKEQNHLKEADKIRQMIEKEYESKTKRRKKHDVDTTASEDVRNRLQKKLLDPKTIQRVSADLDASRKNRLEKNFGQQFSHF	not soluble
MLKSAFILASAPLFFTLAACSGESGTQVNTASAPATQVSRNIGSTVKNRGKLICGVSGELPGFSFVGTDAKYSGIDVDVCRAVTAALFDNPDAVEFRNLNTKERFTALQTGEIDLLSRNTTWTMSRETSVGLQFAPVIFYDGQAIMVSKNSGIKSLADLKNKAICTQTGTTTEQNLADQMRKRSITYKPVVFEDVNITFATYAEGRCDGVTTDRSALISRRTTLPKPEDNIILDELLSSEPLAPAVAKGDPQWNDIVKWVVYSLVKAEELGINSQNIAQLTNSNDPDIKRFLGTEGNLGEGLGLTNDFAARIVKHVGNYGEVYDRNLGGKTKLNLPRGQNQLAIKGGLLYSPPFR	not soluble
MLKYRDEKDISACGIFGIMDRKGRRFNGKLVIEAMSQMKVRGNGLGAGFAVYGLYKKFKEYYAFHVMIYDKDGREKLEKFLSTNFDIVYVDEIPVNDKAKVIDPPKFMRYFVAPRKKGTEKVLNDDDFVVKKVMYINRAIPGVYVISSGKNMGVFKGVGFPEDIADYFMIEEYKGYIWTAHTRFPTNTPGWWGGAHPFSILDWSVVHNGEISSYGTNKRYLEMYGYYSTLQTDTEVITYIFDLLVRRQGLPIEVVSKILAPPMWEEIDRMPEKEKKFYKALRMVYSPILLNGPWAIIVARHGEMIGLTDRIRLRPLTVAEKKSFLIISSEEAPIRYLFRDVDRIYTPYGGELVVGKLEEDIKKFVGESQ	not soluble
MLLFSRQGKLRLQKWYMAYPDKVKKKITRELVTTILARKPKMCSFLEWKDCKIVYKRYASLYFCCAIEQNDNELLTLEIIHRYVELLDKYFGSVCELDIIFNFEKAYFILDELLIGGEIQETSKKNVLKAIASQDLLQEDETPQSFFDDHGLG	soluble
MLLKTIYCKVEEEKKKLFSNAQEKWSDIRHLDGFHGQFGGWYEDEACVFTLWEDRSTYQSFMNGAHDTIYLNSNQEDTFLSCEIELFQTLYDITDTHLKDVVTEGSFVRVAICDVKVEKEKYFLQKQETIWNKGMEKAKGMLGGVVGKSLKNENRYIVLTYWKDEQTHQHYVEEIFPDLYKLANIHEDIEEIKGKQAVCKEEWLVY	not soluble
